Experimental data reported in patent US20170056488A1.

Molecular target: HLA-A*02 (human)
Assay: UV ligand exchange, anti-b2m ELISA; exchange yield grade

peptide exchange yield: 20 to 49%
Binder: VLLRVLIL
